Laboratory results from patent US20140087995A1 (published 2014).
Numbered stars: 1 amine (or outer) side, 2 acyl side, 3 side chain; on linkers, the order of the positions; unused ones are H or OH. Bridge positions count the residues as written; N and C are the ends. * marks the point of attachment. C20 diacid = O=C(O)CCCCCCCCCCCCCCCCCCC(=O)*; γGlu = O=C(O)[C@H](CCC(=O)[*:2])N[*:1]

T1: human amylin 3(a) receptor (human calcitonin receptor + RAMP-3) (human, UniProt P30988 25-474; O60896 24-148, limits assumed)
T1 sequence (looked up) 1: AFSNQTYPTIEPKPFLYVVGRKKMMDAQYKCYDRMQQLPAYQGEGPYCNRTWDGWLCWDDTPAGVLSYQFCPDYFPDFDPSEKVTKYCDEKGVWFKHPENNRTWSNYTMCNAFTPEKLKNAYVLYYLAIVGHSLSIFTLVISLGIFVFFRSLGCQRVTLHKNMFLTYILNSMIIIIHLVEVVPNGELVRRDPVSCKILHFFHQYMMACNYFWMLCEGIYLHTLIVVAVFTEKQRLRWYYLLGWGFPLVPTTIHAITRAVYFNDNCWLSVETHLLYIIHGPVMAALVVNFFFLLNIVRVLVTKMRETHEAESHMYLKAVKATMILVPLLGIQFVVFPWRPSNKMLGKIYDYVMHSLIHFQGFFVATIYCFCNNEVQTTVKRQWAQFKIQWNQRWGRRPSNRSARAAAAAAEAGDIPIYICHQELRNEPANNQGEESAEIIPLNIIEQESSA
T1 sequence (looked up) 2: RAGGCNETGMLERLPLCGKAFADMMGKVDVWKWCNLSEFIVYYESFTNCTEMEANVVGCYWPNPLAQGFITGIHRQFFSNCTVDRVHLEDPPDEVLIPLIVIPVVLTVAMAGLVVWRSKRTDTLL

T2: human calcitonin receptor (human, UniProt P30988 25-474)
T2 sequence (looked up): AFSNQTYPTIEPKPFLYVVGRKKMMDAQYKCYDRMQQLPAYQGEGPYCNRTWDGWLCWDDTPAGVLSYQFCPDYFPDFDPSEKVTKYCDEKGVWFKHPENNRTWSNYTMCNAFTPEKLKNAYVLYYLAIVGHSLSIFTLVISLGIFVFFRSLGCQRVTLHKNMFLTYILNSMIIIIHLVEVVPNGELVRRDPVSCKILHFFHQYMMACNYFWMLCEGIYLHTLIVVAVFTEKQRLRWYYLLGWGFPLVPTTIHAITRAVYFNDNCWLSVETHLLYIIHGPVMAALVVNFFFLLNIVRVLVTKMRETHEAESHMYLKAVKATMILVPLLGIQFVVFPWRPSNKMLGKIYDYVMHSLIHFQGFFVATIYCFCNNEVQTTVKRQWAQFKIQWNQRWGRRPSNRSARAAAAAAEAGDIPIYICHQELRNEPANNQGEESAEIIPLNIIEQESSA


Assays:
[1] = molecular target: T1, human amylin 3(a) receptor (human …); assay: cell-based or functional assay
[2] = molecular target: T2, human calcitonin receptor; assay: cell-based or functional assay
[3] = molecular target: T1, human amylin 3(a) receptor (human …); assay: SPA competition binding, membranes of BHK cells with human calcitonin receptor + RAMP-3, displacement of 125I-rat amylin (Assay V)
Protocol: The binding assay was performed using scintillation proximity assay (SPA) beads (RPNQ0001) from PerkinElmer and cell membranes from the Amylin 3(a)/CRE-luc cells (as described in Assay (II)) were used. Membranes were prepared in the following way; the cells were rinsed with PBS and incubated with Versene for approximately 5 min before harvesting. The cells were flushed with PBS and the cell-suspension was centrifuged for 5 min at 1000 rpm. Cells were homogenized (ultrathurrax) in a buffer containing 20 mM Na-HEPES and 10 mM EDTA (pH 7.4) and centrifuged at 20.000 rpm for 15 min. The resulting pellet was resuspended, homogenized and centrifuged (20.000 rpm, 15 min) in a buffer containing 20 mM Na-HEPES and 0.1 mM EDTA (pH 7.4, buffer 2). The resulting pellet was resuspended in buffer 2 and protein concentration was measured (BCA protein Assay, Pierce). The homogenate was kept cold during the whole procedure. The membranes were kept at −80° C. until use. The assay was performed in a 384 well Optiplate (PerkinElmer) in a total volume of 40 ul. Membranes were mixed with SPA beads. Final concentration of membranes 35 ng/μL final and SPA beads was 0.05 mg/well. Test-compounds were dissolved in DMSO and further diluted in assay buffer (50 mM Hepes, pH 7.4, 1 mM CaCl2, 5 mM MgCl₂, 0.1% OA and 0.02% Tween20). […] The final mixture was incubated with shaking at 400 rpm for 120 min at 25° C. prior to centrifugation (1500 rpm, 10 min). Samples were analyzed on TopCounter™ (Packard). The IC₅₀ was calculated using (one site binding competition analysis) GraphPad Prism5 as a measure of receptor affinity.

hAmylin-R funct. EC50 (pM) [1]	Ratio hCT/hAmylin funct. [2]	IC50 [3]	Binder
162 pM	1	0.374 nM	{C20 diacid-γGlu}-KCNTATCATQRLAEFLRHSSPNFGAPLSSTNVGSNTP-NH2 (disulfide 2-7; SMILES CC(C)C[C@H](NC(=O)[C@H](CCCNC(=N)N)NC(=O)[C@H](CCC(N)=O)NC(=O)[C@@H](NC(=O)[C@H](C)NC(=O)[C@@H]1CSSC[C@H](NC(=O)[C@H](CCCCN)NC(=O)CC[C@H](NC(=O)CCCCCCCCCCCCCCCCCCC(=O)O)C(=O)O)C(=O)N[C@@H](CC(N)=O)C(=O)N[C@@H]([C@@H](C)O)C(=O)N[C@@H](C)C(=O)N[C@@H]([C@@H](C)O)C(=O)N1)[C@@H](C)O)C(=O)N[C@@H](C)C(=O)N[C@@H](CCC(=O)O)C(=O)N[C@@H](Cc1ccccc1)C(=O)N[C@@H](CC(C)C)C(=O)N[C@@H](CCCNC(=N)N)C(=O)N[C@@H](Cc1c[nH]cn1)C(=O)N[C@@H](CO)C(=O)N[C@@H](CO)C(=O)N1CCC[C@H]1C(=O)N[C@@H](CC(N)=O)C(=O)N[C@@H](Cc1ccccc1)C(=O)NCC(=O)N[C@@H](C)C(=O)N1CCC[C@H]1C(=O)N[C@@H](CC(C)C)C(=O)N[C@@H](CO)C(=O)N[C@@H](CO)C(=O)N[C@H](C(=O)N[C@@H](CC(N)=O)C(=O)N[C@H](C(=O)NCC(=O)N[C@@H](CO)C(=O)N[C@@H](CC(N)=O)C(=O)N[C@H](C(=O)N1CCC[C@H]1C(N)=O)[C@@H](C)O)C(C)C)[C@@H](C)O, also called compound 5)
243 pM	2.2	0.915 nM	{C20 diacid-γGlu}-KCNTATCATQRLAEFLRHSSPNFGAILPSTNVGSETY-NH2 (disulfide 2-7, also called compound 33)
60 pM	1.2	0.321 nM	{C20 diacid-γGlu}-KCNTATCATQRLAEFLRHSSPNFGPILPPTNVGSNTP-NH2 (disulfide 2-7; SMILES CC[C@H](C)[C@H](NC(=O)[C@@H]1CCCN1C(=O)CNC(=O)[C@H](Cc1ccccc1)NC(=O)[C@H](CC(N)=O)NC(=O)[C@@H]1CCCN1C(=O)[C@H](CO)NC(=O)[C@H](CO)NC(=O)[C@H](Cc1c[nH]cn1)NC(=O)[C@H](CCCNC(=N)N)NC(=O)[C@H](CC(C)C)NC(=O)[C@H](Cc1ccccc1)NC(=O)[C@H](CCC(=O)O)NC(=O)[C@H](C)NC(=O)[C@H](CC(C)C)NC(=O)[C@H](CCCNC(=N)N)NC(=O)[C@H](CCC(N)=O)NC(=O)[C@@H](NC(=O)[C@H](C)NC(=O)[C@@H]1CSSC[C@H](NC(=O)[C@H](CCCCN)NC(=O)CC[C@H](NC(=O)CCCCCCCCCCCCCCCCCCC(=O)O)C(=O)O)C(=O)N[C@@H](CC(N)=O)C(=O)N[C@@H]([C@@H](C)O)C(=O)N[C@@H](C)C(=O)N[C@@H]([C@@H](C)O)C(=O)N1)[C@@H](C)O)C(=O)N[C@@H](CC(C)C)C(=O)N1CCC[C@H]1C(=O)N1CCC[C@H]1C(=O)N[C@H](C(=O)N[C@@H](CC(N)=O)C(=O)N[C@H](C(=O)NCC(=O)N[C@@H](CO)C(=O)N[C@@H](CC(N)=O)C(=O)N[C@H](C(=O)N1CCC[C@H]1C(N)=O)[C@@H](C)O)C(C)C)[C@@H](C)O, disulfide and C-terminal amide as told for human amylin and the amide resins of the synthesis; also called compound 4)
